Assay [1] deals with endogenous Gab1 of EGF stimulated A431 cells (Homo sapiens (Human)). The assay can be described thus: PI-3-kinase activity assay on anti-Gab1 immunoprecipitates from A431 cells.
The target in assay [2] is endogenous Gab1 of insulin stimulated A431 cells (Homo sapiens (Human)). Described as above.
Assay [3] addresses endogenous Gab1 of EGF stimulated A431 cells (Homo sapiens (Human)). The assay is described as follows: PI-3-kinase activity assay on immunoprecipitates from EGF stimulated A431 cells.
For assay [4], the target named is Gab1 of insulin-stimulated 3T3-L1 fibroblasts (Mus musculus (Mouse)) (UniProt Q9QYY0). The assay is described as follows: PI-3-kinase activity assay on anti-Gab1 immunoprecipitates from 3T3-L1 fibroblasts.
Assay [5] has the same target. The assay is described as follows: PI-3-kinase activity assay on immunoprecipitates from insulin stimulated 3T3-L1 fibroblasts.

Results on two substances are retold here after patent US6133428.

PI-3-kinase of A431 cells (enzyme): the fold increase of PI-3-kinase activity in anti-Gab1 immunoprecipitates against unstimulated cells in assay [1] came out at 2.3 fold. This substance also came in with a fold increase of PI-3-kinase activity in Gab1 immunoprecipitates in assay [2] of 1.7 fold. In assay [3], the anti-Gab1 associated PI-3-kinase activity as percent of that in anti-phosphotyrosine immunoprecipitates turned out to be 42%.

In assay [4], “PI-3-kinase of 3T3-L1 fibroblasts (enzyme)” gave a fold increase of PI-3-kinase activity in Gab1 immunoprecipitates of 2.4 fold. Also, the Gab1 associated PI-3-kinase activity as percent of that associated with anti-phosphotyrosine in assay [5] was determined as 71%.
